Measurements published in patent publication US20250388669A1 (published 2025).

T1: B7H3 (UniProt Q5ZPR3 29-466, limits assumed)
T1 sequence (looked up): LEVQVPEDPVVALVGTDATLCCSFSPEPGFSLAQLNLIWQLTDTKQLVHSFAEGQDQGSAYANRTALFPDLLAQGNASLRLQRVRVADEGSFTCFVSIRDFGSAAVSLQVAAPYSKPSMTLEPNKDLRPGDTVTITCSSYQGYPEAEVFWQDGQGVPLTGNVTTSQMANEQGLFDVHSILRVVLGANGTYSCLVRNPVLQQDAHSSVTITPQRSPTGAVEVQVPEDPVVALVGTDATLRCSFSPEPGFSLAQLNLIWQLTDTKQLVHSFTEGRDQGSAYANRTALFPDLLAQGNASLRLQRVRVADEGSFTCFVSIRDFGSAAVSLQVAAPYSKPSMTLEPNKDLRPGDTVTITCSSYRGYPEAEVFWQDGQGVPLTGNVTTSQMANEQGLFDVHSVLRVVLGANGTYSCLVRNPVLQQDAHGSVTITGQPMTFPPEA

B1: Ly2405 (bispecific antibody, human IgG1, kappa)
heavy 1: not shown
heavy 2: QVTLKESGPALVKPTQTLTLTCTFSGFSLSTSGTCVSWIRQPPGKALEWLATICWEDSKGYNPSLKSRLTISKDTSKNQAVLTMTNMDPVDTATYYCARREDSGYFWFPYWGQGTLVTVSSASTKGPSVFPLAPSSKSTSGGTAALGCLVKDYFPEPVTVSWNSGALTSGVHTFPAVLQSSGLYSLSSVVTVPSSSLGTQTYICNVNHKPSNTKVDKKVEPKSCDKTHTCPPCPAPEAAGPSVFLFPPKPKDTLMISRTPEVTCVVVDVSHEDPEVKFNWYVDGVEVHNAKTKPREEQYNSTYRVVSVLTVLHQDWLNGKEYKCKVSNKALPAPIEKTISKAKGQPREPQVYTLPPSREEMTKNQVSLSCAVKGFYPSDIAVEWESNGQPENNYKTTPPVLDSDGSFFLVSKLTVDKSRWQQGNVFSCSVMHEALHNRFTQKSLSLSPGGGGGSGGGGSGGGGSGGGGSDIQMTQSPSSVSASVGDRVTITCRASQGIYSWLAWYQQKPGKAPNLLIYTASTLQSGVPSRFSGSGSGTDFTLTISSLQPEDFATYYCQQANIFPLTFGGGTKVEIK
light: NIQMTQSPSSLSASVGDRVTITCKAGQNVNNYLAWYQQKPGKAPKVLIFNANSLQTGVPSRFSGSGSGTDFTLTISSLQPEDFATYYCQQYNSWPTFGGGTKVEIKRTVAAPSVFIFPPSDEQLKSGTASVVCLLNNFYPREAKVQWKVDNALQSGNSQESVTEQDSKDSTYSLSSTLTLSKADYEKHKVYACEVTHQGLSSPVTKSFNRGEC
notes: PD-1 Fabs (Ly516) x terminal CD40 Fv (TM383)
B2: Ly2409 (bispecific antibody)
heavy 1: QVTLKESGPALVKPTQTLTLTCTFSGFSLSTSGTCVSWIRQPPGKALEWLATICWEDSKGYNPSLKSRLTISKDTSKNQAVLTMTNMDPVDTATYYCARREDSGYFWFPYWGQGTLVTVSSASTKGPSVFPLAPSSKSTSGGTAALGCLVKDYFPEPVTVSWNSGALTSGVHTFPAVLQSSGLYSLSSVVTVPSSSLGTQTYICNVNHKPSNTKVDKKVEPKSCGGGGSGGGGSGGGGSGGGGSEVQLVESGGGLVQPGGSLRLSCAASGFTFTNYGLHWVRQAPGKGLEWVSSISPSGGVTYYRDSVKGRFTISRDNSKNTLYLQMNSLRAEDTAVYYCAKPFLGWGGANWIAHWGQGTLVTVSSGGGGSDKTHTCPPCPAPEAAGPSVFLFPPKPKDTLMISRTPEVTCVVVDVSHEDPEVKFNWYVDGVEVHNAKTKPREEQYNSTYRVVSVLTVLHQDWLNGKEYKCKVSNKALPAPIEKTISKAKGQPREPQVYTLPPSREEMTKNQVSLWCLVKGFYPSDIAVEWESNGQPENNYKTTPPVLDSDGSFFLYSKLTVDKSRWQQGNVFSCSVMHEALHNHYTQKSLSLSPG
heavy 2: QVTLKESGPALVKPTQTLTLTCTFSGFSLSTSGTCVSWIRQPPGKALEWLATICWEDSKGYNPSLKSRLTISKDTSKNQAVLTMTNMDPVDTATYYCARREDSGYFWFPYWGQGTLVTVSSASTKGPSVFPLAPSSKSTSGGTAALGCLVKDYFPEPVTVSWNSGALTSGVHTFPAVLQSSGLYSLSSVVTVPSSSLGTQTYICNVNHKPSNTKVDKKVEPKSCGGGGSGGGGSGGGGSGGGGSDIQMTQSPSSLSASVGDRVTITCLASEDISNDLAWYQQKPGKAPKLLIYFVDRLLDGVPSRFSGSGSGTDFTLTISSLQPEDFATYYCQQSYKYPPTFGQGTKLEIKGGGGSDKTHTCPPCPAPEAAGPSVFLFPPKPKDTLMISRTPEVTCVVVDVSHEDPEVKFNWYVDGVEVHNAKTKPREEQYNSTYRVVSVLTVLHQDWLNGKEYKCKVSNKALPAPIEKTISKAKGQPREPQVYTLPPSREEMTKNQVSLSCAVKGFYPSDIAVEWESNGQPENNYKTTPPVLDSDGSFFLVSKLTVDKSRWQQGNVFSCSVMHEALHNRFTQKSLSLSPG
light: NIQMTQSPSSLSASVGDRVTITCKAGQNVNNYLAWYQQKPGKAPKVLIFNANSLQTGVPSRFSGSGSGTDFTLTISSLQPEDFATYYCQQYNSWPTFGGGTKVEIKRTVAAPSVFIFPPSDEQLKSGTASVVCLLNNFYPREAKVQWKVDNALQSGNSQESVTEQDSKDSTYSLSSTLTLSKADYEKHKVYACEVTHQGLSSPVTKSFNRGEC
notes: PD-1 Fabs (Ly516) x central CD40 Fv (TM559)
B3: Ly2415 (bispecific antibody, human IgG1, kappa)
heavy 1: QVTLKESGPALVKPTQTLTLTCTFSGFSLSTSGTCVSWIRQPPGKALEWLATICWEDSKGYNPSLKSRLTISKDTSKNQAVLTMTNMDPVDTATYYCARREDSGYFWFPYWGQGTLVTVSSASTKGPSVFPLAPSSKSTSGGTAALGCLVKDYFPEPVTVSWNSGALTSGVHTFPAVLQSSGLYSLSSVVTVPSSSLGTQTYICNVNHKPSNTKVDKKVEPKSCDKTHTCPPCPAPEAAGPSVFLFPPKPKDTLMISRTPEVTCVVVDVSHEDPEVKFNWYVDGVEVHNAKTKPREEQYNSTYRVVSVLTVLHQDWLNGKEYKCKVSNKALPAPIEKTISKAKGQPREPQVYTLPPSREEMTKNQVSLWCLVKGFYPSDIAVEWESNGQPENNYKTTPPVLDSDGSFFLYSKLTVDKSRWQQGNVFSCSVMHEALHNHYTQKSLSLSPGGGGGSGGGGSGGGGSGGGGSEVQLVESGGGLVQPGGSLRLSCAASGFTFTNYGLHWVRQAPGKGLEWVSSISPSGGVTYYRDSVKGRFTISRDNSKNTLYLQMNSLRAEDTAVYYCAKPFLGWGGANWIAHWGQGTLVTVSS
heavy 2: QVTLKESGPALVKPTQTLTLTCTFSGFSLSTSGTCVSWIRQPPGKALEWLATICWEDSKGYNPSLKSRLTISKDTSKNQAVLTMTNMDPVDTATYYCARREDSGYFWFPYWGQGTLVTVSSASTKGPSVFPLAPSSKSTSGGTAALGCLVKDYFPEPVTVSWNSGALTSGVHTFPAVLQSSGLYSLSSVVTVPSSSLGTQTYICNVNHKPSNTKVDKKVEPKSCDKTHTCPPCPAPEAAGPSVFLFPPKPKDTLMISRTPEVTCVVVDVSHEDPEVKFNWYVDGVEVHNAKTKPREEQYNSTYRVVSVLTVLHQDWLNGKEYKCKVSNKALPAPIEKTISKAKGQPREPQVYTLPPSREEMTKNQVSLSCAVKGFYPSDIAVEWESNGQPENNYKTTPPVLDSDGSFFLVSKLTVDKSRWQQGNVFSCSVMHEALHNRFTQKSLSLSPGGGGGSGGGGSGGGGSGGGGSDIQMTQSPSSLSASVGDRVTITCLASEDISNDLAWYQQKPGKAPKLLIYFVDRLLDGVPSRFSGSGSGTDFTLTISSLQPEDFATYYCQQSYKYPPTFGQGTKLEIK
light: NIQMTQSPSSLSASVGDRVTITCKAGQNVNNYLAWYQQKPGKAPKVLIFNANSLQTGVPSRFSGSGSGTDFTLTISSLQPEDFATYYCQQYNSWPTFGGGTKVEIKRTVAAPSVFIFPPSDEQLKSGTASVVCLLNNFYPREAKVQWKVDNALQSGNSQESVTEQDSKDSTYSLSSTLTLSKADYEKHKVYACEVTHQGLSSPVTKSFNRGEC
notes: PD-1 Fabs (Ly516) x terminal CD40 Fv (TM559)
B4: Ly1965 (bispecific antibody)
chain 1: QVQLVQSGAEVKKPGASVKVSCKASGYTFTSYVMHWVRQKPGQGLEWIGYINPYNEGTESTDKFKGRATMTSDKSTSTVYMELSSLRSEDTAVYYCASIYYGYEGTYFGVWGQGTLVTVSSASTKGPSVFPLAPSSKSTSGGTAALGCLVKDYFPEPVTVSWNSGALTSGVHTFPAVLQSSGLYSLSSVVTVPSSSLGTQTYICNVNHKPSNTKVDKKVEPKSCGGGGSGGGGSGGGGSGGGGSEVQLVESGGGLVQPGGSLRLSCAASGFTFSTYAMNWVRQAPGKGLEWVGRIRSKYNNYATYYADSVKGRFTISRDDSKNSLYLQMNSLKTEDTAVYYCVRHGNFGNSYVSWFAYWGQGTLVTVSSGGGGSDKTHTCPPCPAPEAAGPSVFLFPPKPKDTLMISRTPEVTCVVVDVSHEDPEVKFNWYVDGVEVHNAKTKPREEQYNSTYRVVSVLTVLHQDWLNGKEYKCKVSNKALPAPIEKTISKAKGQPREPQVYTLPPSREEMTKNQVSLWCLVKGFYPSDIAVEWESNGQPENNYKTTPPVLDSDGSFFLYSKLTVDKSRWQQGNVFSCSVMHEALHNHYTQKSLSLSPG
chain 2: QVQLVQSGAEVKKPGASVKVSCKASGYTFTSYVMHWVRQKPGQGLEWIGYINPYNEGTESTDKFKGRATMTSDKSTSTVYMELSSLRSEDTAVYYCASIYYGYEGTYFGVWGQGTLVTVSSASTKGPSVFPLAPSSKSTSGGTAALGCLVKDYFPEPVTVSWNSGALTSGVHTFPAVLQSSGLYSLSSVVTVPSSSLGTQTYICNVNHKPSNTKVDKKVEPKSCGGGGSGGGGSGGGGSGGGGSQAVVTQEPSLTVSPGGTVTLTCRSSTGAVTTSNYANWVQQKPGQAPRGLIGGTNKRAPWTPARFSGSLLGGKAALTITGAQAEDEADYYCALWYSNLWVFGGGTKLTVLGGGGSDKTHTCPPCPAPEAAGPSVFLFPPKPKDTLMISRTPEVTCVVVDVSHEDPEVKFNWYVDGVEVHNAKTKPREEQYNSTYRVVSVLTVLHQDWLNGKEYKCKVSNKALPAPIEKTISKAKGQPREPQVYTLPPSREEMTKNQVSLSCAVKGFYPSDIAVEWESNGQPENNYKTTPPVLDSDGSFFLVSKLTVDKSRWQQGNVFSCSVMHEALHNRFTQKSLSLSPG
light: EIVLTQSPATLSLSPGERATLSCRASSSVSYMHWYQQKPGQAPRPWIYATSNLASGIPARFSGSRSGTDYTLTISSLEPEDFAVYYCQQWSSNTLTFGGGTKVEIKRTVAAPSVFIFPPSDEQLKSGTASVVCLLNNFYPREAKVQWKVDNALQSGNSQESVTEQDSKDSTYSLSSTLTLSKADYEKHKVYACEVTHQGLSSPVTKSFNRGEC
notes: Bispecific B7H3 (two Fabs) / CD3 (central Fv)

Columns and labels:
CD40 = CD40 (UniProt P25942 21-193, limits assumed); experiment: FCM or ELISA, graded
PD-1 (binding assay) = PD-1 (binding assay) (UniProt Q15116 25-167, limits assumed); experiment: FCM or ELISA, graded
B7H3 = biological target: T1, B7H3; experiment: FCM or ELISA (graded summary table)

Sequence of CD40 (P25942 21-193 limits assumed): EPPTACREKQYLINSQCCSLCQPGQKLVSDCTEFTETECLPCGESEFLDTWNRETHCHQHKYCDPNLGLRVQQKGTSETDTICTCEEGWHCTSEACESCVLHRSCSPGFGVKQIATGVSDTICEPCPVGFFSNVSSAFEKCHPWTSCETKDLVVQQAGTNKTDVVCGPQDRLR
Sequence of PD-1 (binding assay) (Q15116 25-167 limits assumed): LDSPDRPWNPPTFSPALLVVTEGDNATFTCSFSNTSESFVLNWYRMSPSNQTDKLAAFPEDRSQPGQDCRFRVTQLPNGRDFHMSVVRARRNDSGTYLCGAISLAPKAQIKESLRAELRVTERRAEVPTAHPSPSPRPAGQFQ

Binder | binding result (CD40) | binding result (PD-1 (binding assay)) | binding result (B7H3)
B1 | binds | binds | 
B2 | binds | binds | 
B3 | binds | binds | 
B4 |  |  | binds
